Data from article PMC8428864.

Molecular target: photosystem I from Cyanobacterium aponinum 0216 (one monomer of the trimer, 11 protein subunits) (Cyanobacterium aponinum 0216 (endogenous)) (UniProt K9Z0B2)
Test: cryo-EM structure; single-particle cryo-EM of the purified PSI trimer, C3 symmetry imposed; 30 mM Tricine–NaOH pH 8, 150 mM NaCl, 0.02% DDM; three monomers in the trimer

photosystem I from Cyanobacterium aponinum 0216 (one monomer of the trimer, 11 protein subunits) (from UniProt K9Z0B2 1-750; K9Z2J7 1-738; K9Z1N0 1-81; K9Z9J3 1-39; K9Z7Y0 1-163) (complex)
stoichiometry N: 3
